Assay results as given in patent US7312060.

How the values were obtained:
[1] = molecular target: APC segment 3 (amino acids 1098-1696), wild type, with N-terminal VSV-G tag and C-terminal P53-derived tag (Vesicular Stomatitis Virus; human) (UniProt P25054); assay: HTS-PTT ELISA on NeutrAvidin plate, HRP chemiluminescence
[2] = molecular target: APC segment 3 (amino acids 1098-1696), wild type, with N-terminal VSV-G tag and C-terminal P53-derived tag (Vesicular Stomatitis Virus; human) (UniProt P25054); assay: HTS-PTT ELISA, 0.1 ul of translation mix per well
[3] = molecular target: APC segment 3 (amino acids 1098-1696), wild type, with N-terminal VSV-G tag and C-terminal P53-derived tag (Vesicular Stomatitis Virus; human) (UniProt P25054); assay: HTS-PTT ELISA on NeutrAvidin plate, alkaline phosphatase chemiluminescence

UniProt P25054, sequence (P25054 other isoform, or with tags, fused parts or gaps limits assumed): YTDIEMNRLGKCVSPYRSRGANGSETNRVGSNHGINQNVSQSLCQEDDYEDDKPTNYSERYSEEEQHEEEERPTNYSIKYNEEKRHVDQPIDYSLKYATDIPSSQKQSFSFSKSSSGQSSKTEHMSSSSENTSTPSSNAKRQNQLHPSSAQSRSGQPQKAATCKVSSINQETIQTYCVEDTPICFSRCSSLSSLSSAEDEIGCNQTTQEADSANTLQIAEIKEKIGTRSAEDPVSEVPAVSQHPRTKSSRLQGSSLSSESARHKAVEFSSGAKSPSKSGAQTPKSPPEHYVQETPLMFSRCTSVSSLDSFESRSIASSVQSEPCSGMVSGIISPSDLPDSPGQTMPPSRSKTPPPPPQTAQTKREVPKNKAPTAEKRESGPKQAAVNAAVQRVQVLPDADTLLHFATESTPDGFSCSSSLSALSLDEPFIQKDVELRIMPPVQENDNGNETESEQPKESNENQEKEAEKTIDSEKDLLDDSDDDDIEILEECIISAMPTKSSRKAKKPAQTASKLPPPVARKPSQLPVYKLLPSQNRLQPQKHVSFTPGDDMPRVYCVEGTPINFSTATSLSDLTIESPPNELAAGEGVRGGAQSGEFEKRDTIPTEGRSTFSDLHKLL

Substance | signal over background (fold over background) [1] | signal-to-noise ratio [2] | signal over background (fold over background) [3]
anti-VSV-G-HRP (Roche Applied Sciences) (antibody) | 400 | 10 | –
anti-p53-alkaline phosphatase (Santa Cruz Biotechnology) (antibody) | – | 30 | 100
